From the supplement of paper PMC10724198
± gives the standard deviation of the averaged measurements.

Tested on: Saccharomyces cerevisiae
Assay: protein stability index of tFT-peptide fusion (C-terminal peptide) (PSI (0-1 scale)); higher = more stable (slower turnover)
Settings: genetic background: wild type; temperature: 30 C
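Note: PSI is a weighted mean of sequencing reads over stability bins, variants kept only with over 10 reads, mCherry proximal and sfGFP distal, peptide attached via GGGS linker.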

Sequence	protein stability index
LVRGGHRLSFRL	0.732 ± 0.015
LVSGASHWPSYT	0.694 ± 0.014
LVSPLARLGLMI	0.787 ± 0.05
LVSPPTPPPFPP	0.702 ± 0.059
LVSSSPLPFSPI	0.646 ± 0.079
LVYLASGMYRFV	0.607 ± 0.02
LWAGGVAVAVSR	0.638 ± 0.045
LWCDPVLVLELR	0.776 ± 0.072
LWCWVGGALCGG	0.742 ± 0.17
LWGIAGSGVLVG	0.635 ± 0.0069
LWQGGRAFWQPV	0.679 ± 0.046
LWVGGVGRVRGV	0.69144 ± 0.00047
LWVGVVGRVRGV	0.6609 ± 0.0062
LYGASRCLVARS	0.664 ± 0.0093
LYICNYFKFKKR	0.7096 ± 0.0069
LYIRHPPSAPLP	0.808 ± 0.13
LYKEQRNNCGKI	0.662 ± 0.021
LYLCFDVVKDLG	0.582 ± 0.015
LYPRPSRFPPLL	0.732 ± 0.087
LYRPFTAVPPSI	0.816 ± 0.082
LYTISAGEDELN	0.699 ± 0.018
LYTSPLPAAFQL	0.726 ± 0.038
LYYSEKRIKNVN	0.643 ± 0.077
MAEAVVLDPDMV	0.6831 ± 0.0055
MCCSVGGLFFFF	0.649 ± 0.04
MCFLSCCSFRFC	0.6162 ± 0.0044

Sequence	protein stability index
MCVSSSAGVRQE	0.638 ± 0.054
MDGRVMAETCRA	0.585 ± 0.038
MDHSGYWDISCG	0.801 ± 0.099
MDIVIGSQTEAN	0.7365 ± 0.0036
MERAGTAEGGGA	0.655 ± 0.008
MGAGGGLCGMWA	0.705 ± 0.054
MGGGGGLCGMWA	0.723 ± 0.021
MGHLFIPSQSQS	0.715 ± 0.048
MGKNDSITPELA	0.712 ± 0.029
MGVGCFCCLFVG	0.541 ± 0.011
MHGVSSGSSLVN	0.63 ± 0.038
MIASGGGGEAAY	0.742 ± 0.081
MIGWQADSINKI	0.783 ± 0.022
MISIKNEKKKYT	0.685 ± 0.069
MITQVIKRRKRK	0.688 ± 0.041
MKLWSDALNVVR	0.607 ± 0.12
MKRIRKTKIKAR	0.624 ± 0.074
MKRQQENNAPGR	0.616 ± 0.018
MLGHKIILHTYI	0.54735 ± 0.00019
MLRSGDFSSPPN	0.694 ± 0.042
MNRKEREKKRIK	0.697 ± 0.023
MNVPRQLISRFV	0.683 ± 0.064
MPHLARVREVVH	0.6178 ± 0.0026
MQNDKCWVCNQR	0.693 ± 0.029
MRIKSMLHHSKV	0.66213 ± 0.00021
MRIMERWVMGGG	0.795 ± 0.16

Sequence	protein stability index
MSLLCPSPPFPT	0.695 ± 0.068
MSWSVSDIADDS	0.657 ± 0.0075
MTSSYLCWDVIG	0.632 ± 0.071
MVRNCPYSLSFL	0.734 ± 0.07
MVRWGLGRVYGC	0.786 ± 0.1
MVSSIESHIVLY	0.66 ± 0.0078
MYPFKYGFASWV	0.583 ± 0.016
NALFDLAVMCLD	0.664 ± 0.028
NALLHPRSHLAF	0.686 ± 0.033
NCSPLCLRVASS	0.647 ± 0.029
NDGKTKRVKKRR	0.619 ± 0.065
NDQWKKENRGKK	0.737 ± 0.013
NEQGTIIKRYKK	0.737 ± 0.045
NESCRNREPGHV	0.664 ± 0.1
NESSYGNEKNLG	0.723 ± 0.021
NFATLFSLCCLY	0.611 ± 0.011
NFFTLTRCTLFI	0.66684 ± 0.00029
NFMTEGYFWRGE	0.767 ± 0.0087
NFPEATPSNYKV	0.737 ± 0.015
NFYKKLSNKMGQ	0.662 ± 0.039
NGDPRVHTAVAR	0.704 ± 0.054
NGGGMPDRVVSI	0.722 ± 0.024
NGQVAGVGNVAW	0.678 ± 0.015
NGSAYEGRDYAN	0.626 ± 0.02
NICLPLAHRTPG	0.655 ± 0.017
NIHRKLIKNERV	0.694 ± 0.046

Sequence	protein stability index
NIKKKKKETKNN	0.676 ± 0.024
NIKKNQRKEASK	0.698 ± 0.039
NKGHGAHSRECE	0.65 ± 0.025
NKIKKKRTEPQP	0.66522 ± 7.3e-05
NKKKEKKKNEAK	0.684 ± 0.016
NKKKNKKEEHVE	0.688 ± 0.047
NKKTKNNKGNKQ	0.728 ± 0.063
NKMLCTTEGVAA	0.644 ± 0.038
NKPPGVGHGGVT	0.672 ± 0.025
NKRKSKKRNEIE	0.6701 ± 0.0054
NKSHFGHSCYLR	0.64 ± 0.013
NKTKIKKKKKRG	0.657 ± 0.013
NKYEMRDDTMNI	0.681 ± 0.056
NLGLSGRYAPCK	0.689 ± 0.0072
NLRFLFFSSSRF	0.682 ± 0.017
NLSLYFGGVLVL	0.603 ± 0.027
NMKPPTNKGSNK	0.675 ± 0.054
NMLYRKEGWTKE	0.655 ± 0.036
NMMTSVLEGGVG	0.699 ± 0.16
NMVIRLIEKRKK	0.663 ± 0.021
NNKNNKNKIYKK	0.679 ± 0.0091
NNKRNGRIKRKI	0.738 ± 0.02
NNSCPQGHPDAR	0.7574 ± 0.0065
NNSRTNDVRRRK	0.726 ± 0.018
NPCPSVLCSNCD	0.67 ± 0.064
NPLRTQASTTAQ	0.72 ± 0.096

Sequence	protein stability index
NQHKKGQKKKGI	0.684 ± 0.042
NRGGRKAINENG	0.685 ± 0.036
NRGKDEIMKRDK	0.671 ± 0.066
NRKKIKSIDVRK	0.67 ± 0.07
NRRCAPVHPGPD	0.7217 ± 0.0036
NSFTYWYGGCIL	0.802 ± 0.28
NSSPVRSSCLSA	0.6881 ± 0.0038
NSTERDNGIRKE	0.6686 ± 0.0065
NTKNPRPQDPQQ	0.651 ± 0.013
NTTFISRRLPPR	0.687 ± 0.0089
NVNNNICTYRAI	0.6776 ± 0.0046
NVVFGCFFPVLT	0.684 ± 0.04
NYNGVRRYNGFK	0.574 ± 0.052
PAACPTRTCLYP	0.719 ± 0.045
PALPPPAPLPLS	0.67261 ± 0.00022
PALPPPPLLSSS	0.705 ± 0.012
PALPPPPSPPLL	0.754 ± 0.052
PALQHTVPPPPQ	0.579 ± 0.012
PANGKQNRGKRR	0.645 ± 0.078
PAPCAPLLTHRP	0.6614 ± 0.0025
PAPCPSPPAPAV	0.708 ± 0.029
PAPLFFCAPFFF	0.715 ± 0.034
PAPLSIPSTLTT	0.609 ± 0.053
PAPPLPLAPPPL	0.771 ± 0.025
PAPPSHLLLPLL	0.768 ± 0.067
PAPPSPPPHSSP	0.751 ± 0.063

Sequence	protein stability index
PAPRPAPPSLPP	0.709 ± 0.015
PAPSPPPPRPLP	0.716 ± 0.1
PARRPPPTPSSS	0.631 ± 0.064
PASPPLRALSSL	0.81 ± 0.075
PASQPPTPPPRS	0.675 ± 0.11
PASSTLRPPAHP	0.723 ± 0.18
PAVHLYFIPPTG	0.644 ± 0.038
PAVSRPPLPSVH	0.7 ± 0.089
PCAPHPPPWVVL	0.6058 ± 0.0056
PCDWEGCVAMNV	0.649 ± 0.055
PCFSCPPLFLRT	0.631 ± 0.067
PCGTPHVRPLAT	0.719 ± 0.025
PCLPCVDRGMRG	0.6663 ± 0.00079
PCLTCKARSIWL	0.672 ± 0.033
PCPAPPPASSSP	0.728 ± 0.16
PCPLPVLDASQF	0.7158 ± 0.0053
PCSRVICASEFT	0.701 ± 0.045
PDAGTSSLQTLT	0.722 ± 0.036
PDCPCVAVCSDI	0.728 ± 0.032
PDCQSIIRLTTG	0.752 ± 0.098
PDCVRVSGLGLS	0.665 ± 0.045
PDHPTLPRRNPL	0.743 ± 0.039
PDPPPTRPFPAP	0.672 ± 0.045
PDPPTQPTRRSR	0.686 ± 0.029
PDPTLPTPSRPP	0.642 ± 0.024
PDYPYQDQLARL	0.784 ± 0.058

Sequence	protein stability index
PEEPSANWTGFF	0.598 ± 0.033
PEESSSEGSVKR	0.67927 ± 0.00039
PEGQRNRDAQSA	0.7125 ± 0.0026
PEIKKNRTVSIV	0.664 ± 0.011
PEMELEKRNQHN	0.716 ± 0.015
PENKSLITSPRV	0.628 ± 0.098
PESPGSPEIRHR	0.75 ± 0.053
PFALPPPPPLVP	0.69 ± 0.0078
PFCCALPSPPSP	0.6145 ± 0.0055
PFCGSPARTTAV	0.642 ± 0.052
PFCKTDHMSMTV	0.682 ± 0.039
PFFHFLGFSYFC	0.684 ± 0.024
PFFLAFPPSPPT	0.723 ± 0.029
PFFPSQFFLFFS	0.6477 ± 0.0048
PFFSPLPPSPPP	0.767 ± 0.11
PFGRETCLTSVP	0.648 ± 0.03
PFHCLPRPPCYW	0.708 ± 0.14
PFHPSPLPAPHF	0.638 ± 0.036
PFLAWTILPLTY	0.701 ± 0.0074
PFLLVSHESSLE	0.718 ± 0.0077
PFPPPSTPASLY	0.772 ± 0.11
PFPRPAFPPYFP	0.746 ± 0.047
PFPRPALPAYQS	0.705 ± 0.018
PFPSLCFPPLNG	0.727 ± 0.055
PFPSPPAPPPLP	0.672 ± 0.048
PFRPPPPPSSPP	0.735 ± 0.037

Sequence	protein stability index
PFSFSSLSASVF	0.7033 ± 0.0025
PFSRIFSPLSLL	0.68 ± 0.045
PFSSVATFLSRL	0.854 ± 0.17
PFVLVSDAHLIT	0.66 ± 0.035
PFYVEAVEKPEH	0.855 ± 0.035
PGAGGLSLVVRR	0.654 ± 0.053
PGAVNRASDGEV	0.6061 ± 0.005
PGCGRKSAFGLT	0.699 ± 0.037
PGCPRDRLLLQL	0.67 ± 0.025
PGCSFSYYFFAV	0.5725 ± 0.0016
PGDVSFALARNG	0.624 ± 0.074
PGGRPAAGALRV	0.685 ± 0.065
PGLCGGRRCVAL	0.638 ± 0.073
PGLNHLTPMLPP	0.635 ± 0.038
PGLPGHLPPLPL	0.62033 ± 0.00011
PGLRSQQLIAPI	0.652 ± 0.069
PGPCLLFPPFPP	0.643 ± 0.012
PGPPADLAPPPP	0.753 ± 0.018
PGPPYPPPPLHP	0.716 ± 0.008
PGRLPPPFASFF	0.687 ± 0.0091
